Test results as given in IntAct's records for PubMed 17498700.

B1: Type-1 angiotensin II receptor (Homo sapiens), P30556 (parent)
chain: MILNSSTEDGIKRIQDDCPKAGRHNYIFVMIPTLYSIIFVVGIFGNSLVVIVIYFYMKLKTVASVFLLNLALADLCFLLTLPLWAVYTAMEYRWPFGNYLCKIASASVSFNLYASVFLLTCLSIDRYLAIVHPMKSRLRRTMLVAKVTCIIIWLLAGLASLPAIIHRNVFFIENTNITVCAFHYESQNSTLPIGLGLTKNILGFLFPFLIILTSYTLIWKALKKAYEIQKNKPRNDDIFKIIMAIVLFFFFSWIPHQIFTFLDVLIQLGIIRDCRIADIVDTAMPITICIAYFNNCLNPLFYGFLGKKFKRYFLQLLKYIPPKAKSHSNLSTKMSTLSYRPSDNVSSSTKKPAPCFEVE

Variants of: B1
Settings: with arrb1_human ARRB1, P49407
Sequence of arrb1_human ARRB1, P49407 (P49407 whole entry): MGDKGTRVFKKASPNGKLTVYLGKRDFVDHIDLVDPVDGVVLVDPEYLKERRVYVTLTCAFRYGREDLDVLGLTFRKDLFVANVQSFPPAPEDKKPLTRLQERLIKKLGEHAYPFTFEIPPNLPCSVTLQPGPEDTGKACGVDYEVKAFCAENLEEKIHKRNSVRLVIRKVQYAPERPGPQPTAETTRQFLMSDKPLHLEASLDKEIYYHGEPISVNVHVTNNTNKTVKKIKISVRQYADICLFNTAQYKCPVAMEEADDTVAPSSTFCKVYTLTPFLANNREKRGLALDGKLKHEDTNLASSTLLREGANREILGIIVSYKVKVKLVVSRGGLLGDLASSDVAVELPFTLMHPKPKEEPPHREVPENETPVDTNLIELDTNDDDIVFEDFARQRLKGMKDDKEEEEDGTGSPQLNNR

With N111G as the variant, how does the “effect of a mutation on the interaction” value read?
The value was “decreasing interaction”.

Variants of: B1
Settings: with gnaq_human GNAQ

For N111G, which “effect of a mutation on the interaction” value is on record?
The value was “increasing interaction”.
